Laboratory results as given in US20250332238.

How the values were obtained:
[1] = biological target: T1, TRMT112 (KMT9beta; tRNA methyltransferase subunit 11-2, isoform 2, Homo sapiens)
T1 chain: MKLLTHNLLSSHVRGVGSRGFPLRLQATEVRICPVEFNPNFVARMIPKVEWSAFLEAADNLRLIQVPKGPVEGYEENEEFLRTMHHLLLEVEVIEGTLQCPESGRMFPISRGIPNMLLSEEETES

[2] = biological target: mutant histone H4 where K12 was changed to alanine (H4K12A), P62805

B1: C21orf127 (KMT9alpha; N-6 adenine-specific DNA methyltransferase 1, isoform 1, Homo sapiens) (protein)
chain: MAGENFATPFHGHVGRGAFSDVYEPAEDTFLLLDALEAAAAELAGVEICLEVGSGSGVVSAFLASMIGPQALYMCTDINPEAAACTLETARCNKVHIQPVITDLVKGLLPRLTEKVDLLVFNPPYVVTPPQEVGSHGIEAAWAGGRNGREVMDRFFPLVPDLLSPRGLFYLVTIKENNPEEILKIMKTKGLQGTTALSRQAGQETLSVLKFTKS
In the case of B1, the “HMT activity (methylation assay)” value [1] is reported as “only the C21orf127/TRMT112 heterodimer displayed HMT activity”.

B2: C21orf127(Y125A)/TRMT112 complex (protein)
chain 1: MAGENFATPFHGHVGRGAFSDVYEPAEDTFLLLDALEAAAAELAGVEICLEVGSGSGVVSAFLASMIGPQALYMCTDINPEAAACTLETARCNKVHIQPVITDLVKGLLPRLTEKVDLLVFNPPAVVTPPQEVGSHGIEAAWAGGRNGREVMDRFFPLVPDLLSPRGLFYLVTIKENNPEEILKIMKTKGLQGTTALSRQAGQETLSVLKFTKS
chain 2: MKLLTHNLLSSHVRGVGSRGFPLRLQATEVRICPVEFNPNFVARMIPKVEWSAFLEAADNLRLIQVPKGPVEGYEENEEFLRTMHHLLLEVEVIEGTLQCPESGRMFPISRGIPNMLLSEEETES
With B2 the “methylation of ETF1 (methylation assay)” value (ETF1, P62495) was “resulted in methylation of H4K12, but not ETF1 by the mutant C21orf127(Y125A)/TRMT112 complex” and the “methylation of H4K12 (methylation assay)” value (histone H4, P62805) was “resulted in methylation of H4K12, but not ETF1 by the mutant C21orf127(Y125A)/TRMT112 complex”.

B3: C21orf127/TRMT112 heterodimer (KMT9) (protein)
chain 1: MAGENFATPFHGHVGRGAFSDVYEPAEDTFLLLDALEAAAAELAGVEICLEVGSGSGVVSAFLASMIGPQALYMCTDINPEAAACTLETARCNKVHIQPVITDLVKGLLPRLTEKVDLLVFNPPYVVTPPQEVGSHGIEAAWAGGRNGREVMDRFFPLVPDLLSPRGLFYLVTIKENNPEEILKIMKTKGLQGTTALSRQAGQETLSVLKFTKS
chain 2: MKLLTHNLLSSHVRGVGSRGFPLRLQATEVRICPVEFNPNFVARMIPKVEWSAFLEAADNLRLIQVPKGPVEGYEENEEFLRTMHHLLLEVEVIEGTLQCPESGRMFPISRGIPNMLLSEEETES
B3 was tested, and the “in vitro methylation assay with SAM [3H] (FIG. 1A, FIG. 1B)” value (histone H4, P62805) was “wild-type H4 protein, but not mutant H4 where K12 was changed to an alanine (A) residue (H4K12A), was methylated” and the “in vitro methylation assay with SAM [3H] (FIG. 1B)” value [2] was “wild-type H4 protein, but not mutant H4 where K12 was changed to an alanine (A) residue (H4K12A), was methylated”.
